# Test results taken from US7666414B2, “Methods for treating prostate cancer using modified antibodies to prostate-specific membrane antigen” (Cornell Research Foundation, Inc., priority 2001, dated 2010).
# Positions count from the first letter of the chain named. Like-named read-outs stand apart in the source and are kept apart here.
# B1: E99: murine monoclonal antibody to human PSMA, hybridoma ATCC HB-12101 (antibody, V domains shown)
# VH: QVQLKESGPGLVASSQSLSITCTVSGFSLTAYGINWVRQPPGKGLEWLGVIWPDGNTDYNSTLKSRLNIFKDNSKNQVFLKMSSFQTDDTARYFCARDSYGNFKRGWFDFWGQGTTLTVSS
# VL: NIVMTQSQKFMSTSPGDRVRVTCKASQNVGSDVAWYQAKPGQSPRILIYSTSYRYSGVPDRFTAYGSGTDFTLTITNVQSEDLTEYFCQQYNSYPLTFGAGTKLELK
# B2: J533: murine monoclonal antibody to human PSMA, hybridoma ATCC HB-12127 (antibody, V domains shown)
# VH: EVQLQQSGPELVKPGASVKMSCKASGYTFTGYVMHWVKQKPGQVLEWIGYINPYNDVTRYNGKFKGKATLTSDKYSSTAYMELSGLTSEDSAVYYCARGENWYYFDSWGRGATLTVSS
# VL: DIVLTQSPASLAVSLGQRATISCRASESIDSYDNTFMHWYQQKPGQPPNLLIFRASILESGIPARFSGSGSGTDFTLTIYPVEADDVATYYCHQSIEDPYTFGGGTKLEIK
# B3: DIVH4/DIVK5: deimmunized J415 heavy chain version 4 combined with deimmunized J415 light chain version 5 (antibody, V domains shown)
# VH: EVKLEESGGGLVQPGGSMKISCVASGFTFSNYWMNWVRQSPEKGLEWVAEIRSQSNNFATHYAESVKGRVIISRDDSKSSVYLQMNSLRAEDTAVYYCTRRWNNFWGQGTTVTVSS
# VL: NIVMTQFPKSMSASAGERMTLTCKASENVGTYVSWYQQKPTQSPKMLIYGASNRFTGVPDRFSGSGSGTDFILTISSVQAEDLVDYYCGQSYTFPYTFGGGTKLEMK
# B4: J415: murine monoclonal antibody to human PSMA, hybridoma ATCC HB-12109 (antibody, V domains shown)
# VH: B3 VH with I20L, S87N, A94G, V95I, V112L
# VL: B3 VL with A13I, A15V, M19V, T41E, S63T, G68A, A80T
# What was measured:
# [1] = target: prostate specific membrane antigen (Homo sapiens, UniProt Q04609); assay: Competitive binding sites on PSMA; conditions: relative to J591, J533, E99 site
# Excerpt: To kill or ablate normal, benign hyperplastic, and cancerous prostate epithelial cells, a first antibody, e.g., a modified antibody, can be conjugated with a prodrug which is activated only when in close proximity with a prodrug activator. The prodrug activator is conjugated with a second antibody, e.g., a second modified antibody according to the present invention, preferably one that binds to a non-competing site on the prostate specific membrane antigen molecule. Whether two modified antibodies bind to competing or non-competing binding sites can be determined by conventional competitive binding assays. […] Monoclonal antibody J415, on the other hand, binds to a binding site that is non-competing with the site to which J591, J533, and E99 bind. Thus, for example, the first modified antibody can be one of J591, J533, and E99, and the second modified antibody can be J415. Alternatively, the first modified antibody can be J415, and the second modified antibody can be one of J591, J533, and E99. Drug-prodrug pairs suitable for use in the practice of the present invention are described in Blakely et al., “ZD2767, an Improved System for Antibody-directed Enzyme Prodrug Therapy That Results in Tumor Regressions in Colorectal Tumor Xenografts,” (1996) Cancer Research, 56:3287-3292, which is hereby incorporated by reference.
# [2] = target: T1, LNCap membrane preparation (Homo sapiens, UniProt Q04609); assay: ELISA for binding of J415 deimmunized antibodies to LNCap membrane preparation
# T1 construct: ELISA plates were coated with LNCap membrane preparation; endogenous in cells; host or cells: LNCap (LNCaP) human prostate carcinoma cells, membrane preparation
# Experimental: The J415 deimmunized antibodies (including various combinations of the deimmunized light chain and heavy chain subunits) were tested in an ELISA for binding to LNCap membrane preparation following the protocol as detailed above. ELISA plates were coated with LNCap membrane preparation and blocked with 5% BSA in phosphate buffered saline. Doubling dilutions of the J415 chimeric antibody (murine variable heavy and light chain regions fused to human constant heavy and light chain regions, respectively) and the deimmunized antibodies were applied. Detection was with horseradish peroxidase conjugated goat anti-human IgG and donkey anti-mouse for chimeric and mouse antibodies respectively. Color was developed with o-phenylene diamine substrate.
# [3] = tested on: PSMA-positive human LNCaP tumors; assay: Biodistribution of 131I labeled MAbs in nude mice bearing LNCaP tumors; conditions: mouse, in vivo
# Experimental: (§1) Prior to use, the cells were trypsinized, counted and suspended in Matrigel (Collaborative Biomedical Products, Bedford, Mass.). Nu/Nu Balb C mice 8-10 weeks of age were inoculated, in the right and left flanks, with a suspension of 5×10^6 LNCaP cells in Matrigel (BD Biosciences, Bedford Mass.). After a period of 14-18 days, tumors (100-300 mg) had developed. The PSMA-negative DU145 and PC3 cells were implanted in nude mice in an identical manner.
# (§2) The PSMA-positive and PSMA-negative tumor bearing mice were injected, via the tail vein, with 80 KBq of the iodinated MAb (400 MBq/mg) in 200 μL of PBS (pH 7.4, 0.2% BSA). Groups of animals (3-8/group) were sacrificed after 2, 4 or 6 days. The major organs and tumors were recovered. The tissue samples were weighed and counted, with appropriate standards in an automatic NaI(Tl) counter. These measured relative activity data (cpm) were background corrected and expressed as a percentage of the injected dose per gram (% ID/g). […] J415, J591 and 7E11 were labeled with ^111In (100 MBq/mg). 80 KBq of the ^111In labeled MAbs were injected in groups of animals. The % ID/g in various organs and tumor tissues was determined at 2-6 days post injection in a similar way as described for ^131I labeled MAbs.
# [4] = tested on: PSMA-positive human LNCaP tumors; parameters: species or system nude mice; conditions: mouse, in vivo
# Experimental: as §1, §2
# For the imaging studies, animals were injected with 2 MBq of ^111In-DOTA-J591. […]
# prostate specific membrane antigen, sequence (Q04609 whole entry): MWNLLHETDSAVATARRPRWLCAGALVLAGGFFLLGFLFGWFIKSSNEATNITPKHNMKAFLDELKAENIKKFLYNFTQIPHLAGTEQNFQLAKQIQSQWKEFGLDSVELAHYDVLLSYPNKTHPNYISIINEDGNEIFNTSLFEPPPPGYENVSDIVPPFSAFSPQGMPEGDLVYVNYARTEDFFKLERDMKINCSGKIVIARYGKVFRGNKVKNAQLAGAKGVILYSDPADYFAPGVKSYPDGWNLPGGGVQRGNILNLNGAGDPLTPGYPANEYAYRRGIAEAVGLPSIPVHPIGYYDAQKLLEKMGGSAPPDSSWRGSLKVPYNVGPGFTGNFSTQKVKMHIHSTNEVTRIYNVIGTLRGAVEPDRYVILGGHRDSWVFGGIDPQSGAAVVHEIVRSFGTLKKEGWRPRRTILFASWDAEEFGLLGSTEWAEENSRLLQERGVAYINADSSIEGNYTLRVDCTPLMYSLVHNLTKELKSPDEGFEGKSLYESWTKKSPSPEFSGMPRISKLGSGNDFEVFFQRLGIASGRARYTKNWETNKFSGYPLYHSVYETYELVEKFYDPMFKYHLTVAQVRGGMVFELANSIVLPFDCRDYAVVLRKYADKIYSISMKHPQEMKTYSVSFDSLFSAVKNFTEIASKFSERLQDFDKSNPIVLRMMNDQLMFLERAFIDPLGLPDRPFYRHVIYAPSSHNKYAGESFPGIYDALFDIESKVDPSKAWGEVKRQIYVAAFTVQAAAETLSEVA
# T1 sequence (Q04609 whole entry): as above
molecule,measurement,setting,value
B1,binding site on the prostate specific membrane antigen molecule,[1],bind to competing binding sites
B2,binding site on the prostate specific membrane antigen molecule,[1],bind to competing binding sites
B3,binding to LNCap as compared to the chimeric antibody,[2],equivalent binding
B4,binding site on the prostate specific membrane antigen molecule,[1],non-competing
same,blood activity,[3],significantly lower compared to that of 7E11
same,tumor uptake,[3],12.2±3.24 % injected dose/gram
same,tumor/blood and tumor/muscle ratios,[3],significantly higher
same,blood activity,[4],2.63±0.23 % ID/g
same,tumor/blood ratios,[4],significantly higher
